Experimental data from US20020192780.

Experiments:
[1] = biological target: T1, SEQ ID NO:2 (KVLDGQDP)
T1 chain: KVLDGQDP

[2] = biological target: PLA2 (Bovine pancreas, EC 3.1.1.4, Sigma), P00593
[3] = biological target: T2, SEQ ID NO:1 (KVLDPVKG)
T2 chain: KVLDPVKG

Chain of PLA2 (Bovine pancreas, EC 3.1.1.4, Sigma), P00593 (P00593 23-145): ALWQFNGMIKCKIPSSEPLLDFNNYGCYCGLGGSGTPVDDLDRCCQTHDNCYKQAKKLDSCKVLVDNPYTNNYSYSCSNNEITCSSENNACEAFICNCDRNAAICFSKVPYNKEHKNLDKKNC

B1: TGase (Guinea pig liver, EC 2.3.2.13, Sigma) (protein)
chain: AEDLILERCDLQLEVNGRDHRTADLCRERLVLRRGQPFWLTLHFEGRGYEAGVDTLTFNAVTGPDPSEEAGTMARFSLSSAVEGGTWSASAVDQQDSTVSLLLSTPADAPIGLYRLSLEASTGYQGSSFVLGHFILLYNPRCPADAVYMDSDQERQEYVLTQQGFIYQGSAKFINGIPWNFGQFEDGILDICLMLLDTNPKFLKNAGQDCSRRSRPVYVGRVVSAMVNCNDDQGVLQGRWDNNYSDGVSPMSWIGSVDILRRWKDYGCQRVKYGQCWVFAAVACTVLRCLGIPTRVVTNFNSAHDQNSNLLIEYFRNESGEIEGNKSEMIWNFHCWVESWMTRPDLEPGYEGWQALDPTPQEKSEGTYCCGPVPVRAIKEGHLNVKYDAPFVFAEVNADVVNWIRQKDGSLRKSINHLVVGLKISTKSVGRDEREDITHTYKYPEGSEEEREAFVRANHLNKLATKEEAQEETGVAMRIRVGQNMTMGSDFDIFAYITNGTAESHECQLLLCARIVSYNGVLGPVCSTNDLLNLTLDPFSENSIPLHILYEKYGDYLTESNLIKVRGLLIEPAANSYVLAERDIYLENPEIKIRVLGEPKQNRKLIAEVSLKNPLPVPLLGCIFTVEGAGLTKDQKSVEVPDPVEAGEQAKVRVDLLPTEVGLHKLVVNFECDKLKAVKGYRNVIIGPA
TGase activity (incorporation of 14C-putrescine into succinylated casein), peptide 1x10^-8 M preincubated with the enzyme [1]: significantly reduced the PLA2 and TGase activities
PLA2 activity [2]: PLA2 activity was increased about 2-fold after TGase 2 treatment
TGase activity (incorporation of 14C-putrescine into succinylated casein), peptide 1x10^-8 M preincubated with the enzyme [3]: significantly reduced the PLA2 and TGase activities
